The term EC50 denotes the concentration that produces a half-maximal response. Low readings indicate higher potency in that assay, high ones lower potency in that assay.

These results are taken from patent US20240132578A1.

Some results are limits rather than exact numbers.

For assay [1], the target named is HIV-1 92UG005 envelope glycoprotein (Env), clade D pseudovirus (HIV-1). The assay is described as follows: cell-based or functional assay.
In assay [2] the target is HIV-1 MGRM-D-001 envelope glycoprotein (Env), clade D pseudovirus (HIV-1). The assay is described as follows: cell-based or functional assay.
Assay [3] deals with HIV-1 MGRM-C-027 Env (HIV-1 isolate MGRM-C-027 (clade C)). In words: cell-based or functional assay.
For assay [4], the target named is HIV-1 MGRM-D-001 Env (HIV-1 isolate MGRM-D-001 (clade D)). In words: cell-based or functional assay.
The target in assay [5] is Endo H treated JR-FL gP120 (HIV-1 JR-FL). The assay is described as follows: ELISA, antigen-coated wells, mAb titrated; EC50 by nonlinear regression. Background: In an ELISA, binding on a coated surface is turned into a signal by an enzyme label.
For assay [6], the target named is HIV-1 Env of pseudovirus TR0.11 (HIV-1). The assay is described as follows: cell-based or functional assay.
Assay [7] addresses HIV-1 Env of isolate 92UG005 (subtype D) (HIV-1). In words: cell-based or functional assay.
The target in assay [8] is HIV-1 Env of isolate MG RM-D-022 (subtype D) (HIV-1). In words: cell-based or functional assay.
Assay [9] concerns the target HIV-1 Env of isolate MG RM-D-029 (subtype D) (HIV-1). In words: cell-based or functional assay.
Assay [10] concerns the target HIV-1 APV13 envelope glycoprotein (Env) on virus (HIV-1, clade B, isolate APV13). In words: cell-based or functional assay.
In assay [11] the target is HIV-1 92BR020 envelope glycoprotein (Env) on pseudovirus (HIV-1). In words: cell-based or functional assay.
Assay [12] concerns the target HIV-1 APV17 envelope glycoprotein (Env) (HIV-1). In words: cell-based or functional assay.
Assay [13] addresses HIV-1 MGRM-D-001 envelope glycoprotein (Env) (HIV-1). In words: cell-based or functional assay.
The target in assay [14] is HIV-1 92RW020 Env (pseudovirus) (HIV-1). In words: cell-based or functional assay.
Assay [15] concerns the target HIV-1 APV13 Env (pseudovirus) (HIV-1). In words: cell-based or functional assay.
Assay [16] has as its target aMLV envelope (negative control pseudovirus). The assay is described as follows: cell-based or functional assay.
Assay [17] concerns the target HIV-1 Env of isolate 92RW020 (clade A) (HIV-1). The assay is described as follows: cell-based or functional assay.

Sequence of 5329_C19 (PGT-136) (antibody) (VH): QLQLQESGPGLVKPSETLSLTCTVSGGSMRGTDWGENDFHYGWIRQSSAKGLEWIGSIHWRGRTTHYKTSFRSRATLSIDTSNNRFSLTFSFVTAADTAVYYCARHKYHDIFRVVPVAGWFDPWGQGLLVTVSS
Sequence of 5329_C19 (PGT-136) (antibody) (VL): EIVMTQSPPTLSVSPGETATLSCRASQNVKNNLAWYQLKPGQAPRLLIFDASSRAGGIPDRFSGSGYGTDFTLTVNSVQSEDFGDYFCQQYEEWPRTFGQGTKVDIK
Sequence of 1443_C16 (PG16) (TCN-116) (antibody) (VH): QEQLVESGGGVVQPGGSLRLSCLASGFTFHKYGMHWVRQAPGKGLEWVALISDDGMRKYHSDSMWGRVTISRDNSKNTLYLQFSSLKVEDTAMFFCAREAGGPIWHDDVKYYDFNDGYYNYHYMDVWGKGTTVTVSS
Sequence of 1443_C16 (PG16) (TCN-116) (antibody) (VL): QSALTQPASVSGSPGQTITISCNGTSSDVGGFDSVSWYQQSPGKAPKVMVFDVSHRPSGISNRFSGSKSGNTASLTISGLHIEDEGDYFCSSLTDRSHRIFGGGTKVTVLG

4858_P08 (PGT-123) (antibody): in assay [1], the IC50, pseudovirus neutralization is 2.49 µg/mL; the IC80 (pseudovirus neutralization) is above 10 µg/mL; the IC90 (pseudovirus neutralization) was above 10 µg/mL; the IC95 (pseudovirus neutralization) was above 10 µg/mL. In [2], the IC50, pseudovirus neutralization is 0.215 µg/mL; the IC80 (pseudovirus neutralization) is 0.678 µg/mL; the IC90 (pseudovirus neutralization) was determined as 1.31 µg/mL; the IC95 (pseudovirus neutralization) was determined as 2.33 µg/mL.
Consider 4838_L06 (PGT-121) (antibody), for which, in assay [3], the Neutralization IC80 turned out to be 0.0829 µg/mL, the Neutralization IC90 was found to be 0.374 µg/mL and the Neutralization IC95 came out at 3.14 µg/mL. In assay [4], this substance displayed a Neutralization IC80 of 3.29 µg/mL, a Neutralization IC90 of 6.26 µg/mL and a Neutralization IC95 of 9.39 µg/mL. Moreover, the EC50 in assay [5] is above 10 µg/mL.
Take 1443_C16 (PG16) (TCN-116) (antibody): the IC50, pseudovirus neutralization (TZM-bl assay) in assay [6] is 3.61 µg/mL.
As for PGV04 (antibody), the results for the IC50 (µg/mL), pseudovirus neutralization in assay [7], in [8] and in [9] were 0.44 µg/mL, above 50 µg/mL and 1.56 µg/mL, respectively.
In assay [10], 4877_D15 (PGT-122) (antibody) returned a Neutralization IC80 of 4.14 µg/mL, a Neutralization IC90 of 8.6 µg/mL, a Neutralization IC95 above 10 µg/mL and a neutralization IC50 of 0.992 µg/mL.
In [11], 5343_B08 (PGT-135) (antibody) gave a Neutralization IC80 of 0.253 µg/mL, a Neutralization IC90 of 0.43 µg/mL, a Neutralization IC95 of 0.72 µg/mL and a neutralization IC50 of 0.104 µg/mL.
In assay [12], 5329_C19 (PGT-136) (antibody) displayed a Neutralization IC80 above 10 µg/mL, a Neutralization IC90 above 10 µg/mL, a Neutralization IC95 above 10 µg/mL and a neutralization IC50 above 10 µg/mL. Also, in [13], the Neutralization IC80 was above 10 µg/mL, the Neutralization IC90 was above 10 µg/mL, the Neutralization IC95 is above 10 µg/mL and the neutralization IC50 was above 10 µg/mL.
In assay [14], 5123_A06 (PGT-125) (antibody) came in with a Neutralization by PGT-125, IC50 of 0.0028 µg/mL; a Neutralization by PGT-125, IC80 of 0.011 µg/mL; a Neutralization by PGT-125, IC90 of 0.0248 µg/mL; a Neutralization by PGT-125, IC95 of 0.0526 µg/mL. Moreover, in assay [15], the Neutralization by PGT-125, IC50 came out at 0.0128 µg/mL; the Neutralization by PGT-125, IC80 is 0.0414 µg/mL; the Neutralization by PGT-125, IC90 was 0.0821 µg/mL; the Neutralization by PGT-125, IC95 was 0.154 µg/mL. In assay [16], this substance gave a Neutralization by PGT-125, IC50 above 10 µg/mL; a Neutralization by PGT-125, IC80 above 10 µg/mL; a Neutralization by PGT-125, IC90 above 10 µg/mL; a Neutralization by PGT-125, IC95 above 10 µg/mL.
In [17], 1496_C09 (PG9) (TCN-109) (antibody) gave a Neutralization IC80 of 1.04 µg/mL, a Neutralization IC90 of 3.4 µg/mL and a neutralization IC50 of 0.161 µg/mL.
